The text below walks through data of patent US20230022970A1, “USE OF GLIAL CELL LINE-DERIVED NEUROTROPHIC FACTOR (GDNF) FOR THE TREATMENT OF ENTERIC NEUROPATHIES” (TRANSFERT PLUS, société en commandite, priority 2019, published 2023).

The subject of data set [1] is Hol^Tg/Tg mice (model for Trisomy 21 [Collagen VI]-associated HSCR). Kind of data set: GDNF enema treatment, survival of Hol^Tg/Tg pups. The data set is classed as in vivo, mouse. The following applies: 10 μg in 10 μl PBS enema once daily P4-P8, Hol^Tg/Tg mice. The method, then:
(§1) For all enema treatments, mutant mouse pups were identified at P3 via pigmentation-based genotyping. Unless specified otherwise (see FIG. 1), 10 μl enemas consisting of a 1 μg/μl solution of recombinant human mature GDNF (Peprotech cat. #450-10) diluted in PBS were administered daily between P4 to P8. […] Other tested molecules (1 μg/μl solution in 10 μl enemas) included the serotonin receptor (5-HT4R) agonist RS67506 (R&D Systems, Cat. #0990), Noggin (Sigma, Cat. # SRP4675), endothelin-3 (Sigma, Cat. # E9137), serotonin (Sigma, Cat. # H9523), and L-ascorbic acid (Sigma, Cat. # A4403). Enemas were administered using a 24-gauge gavage needle (Fine Science Tools, Canada) attached to a micropipette. The head of the gavage needle was introduced in the rectum just beyond the anus (pre-lubricated with Vaseline™), and enemas were injected over the course of a few seconds. Pups were then placed back with their mother, and either sacrificed at P20 for tissue analysis or checked daily to track survival.
It was first tested if GDNF enemas in young mice could enhance enteric neuron numbers and restore function in distal aganglionic bowel using three mouse models of short-segment HSCR. Selected lines were Holstein (Hol^Tg/Tg; a model for Trisomy 21 [Collagen VI]-associated HSCR) (39), TashT (TashT^Tg/Tg; a model for male-biased HSCR) (40), and Piebald-lethal (Ednrb^S-l/s-l; a model for EDNRB mutation-associated HSCR) (41). The enema volume necessary to fill whole colon, concentration of GDNF homodimer (30 kDa), treatment time window, as well as duration and frequency of therapy were first determined with Hol^Tg/Tg pups (FIGS. 1A-D). […] Remarkably, the selected treatment (i.e. daily administration of 10 μg GDNF in PBS as 10 μl enemas for 5 consecutive days between postnatal day [P]4 to P8) prevented death by megacolon in about half of Hol^Tg/Tg mice at P28, the maximum age of survival for control Hol^Tg/Tg mice (FIG. 2A). Most animals surviving to P28 reached adult age after GDNF treatment and mice evaluated could reproduce (two tested breeding pairs were fertile). […]

The test system of a further data set is Hol^Tg/Tg mice. Briefly: Time-course immunofluorescence of HisGDNF distribution and RET expression in distal colon. The data set is classed as in vivo, mouse. The method, then:
as §1
Tissue labelling and imaging. […] EdU was detected using the Invitrogen Click-iT EdU Imaging Kit (ThermoFisher Scientific, Cat. # C10337) in accordance with the manufacturer's instructions. […]

Where no end group is shown, it is not given here.

Regarding “endothelin-3 (CTCFTYKDKECVYYCHLDIIW; ends and bridges not checked; cysteine pairing not given here; UniProt P14138 97-117, looked up) [endothelin-3 monomer (26 kDa), Sigma Cat. # E9137, tested neurotrophic molecule]”, the life expectancy entry in data set [1] is on record as “failed to increase life expectancy”.
For `COc1cc(N)c(Cl)cc1C(=O)CCC1CCN(CCNS(C)(=O)=O)CC1` [RS67506], the life expectancy entry in data set [1] is reported as “failed to increase life expectancy”.

B1: Noggin: Noggin homodimer (46 kDa), Sigma Cat. # SRP4675, tested neurotrophic molecule (protein, UniProt Q13253 28-232, looked up)
Noggin: QHYLHIRPAPSDNLPLVDLIEHPDPIFDPKEKDLNETLLRSLLGGHYDPGFMATSPPEDRPGGGGGAAGGAEDLAELDQLLRQRPSGAMPSEIKGLEFSEGLAQGKKQRLSKKLRRKLQMWLWSQTFCPVLYAWNDLGSRFWPRYVKVGSCFSKRSCSVPEGMVCKPSKSVHLTVLRWRCQRRGGQRCGWIPIQYPIISECKCSC
As to B1, in data set [1], the life expectancy result is recorded as “failed to increase life expectancy”.

B2: HisGDNF: 6×His-tagged version of GDNF used for enema treatments (protein, UniProt P39905 78-211, looked up)
Glial cell line-derived …: SPDKQMAVLPRRERNRQAAAANPENSRGKGRRGQRGKNRGCVLTAIHLNVTDLGLGYETKEELIFRYCSGSCDAAETTYDKILKNLSRNRRLVSDKVGQACCRPIAFDDDLSFLDDNLVYHILRKHSAKRCGCI
modifications: 6xHis tag
notes: 6×His-tagged version of GDNF used for enema treatments
Turning to B2, the “distribution in colon submucosa, smooth muscles and subsets of enteric neurons” value in the data set on Hol^Tg/Tg mice (distal colon 2 h after treatment on P4, P6 and P8, Hol^Tg/Tg) is “accumulated over time”. For the same molecule, the “levels of the main GDNF receptor RET” value with Hol^Tg/Tg mice (distal colon, P4-P8 treatment, Hol^Tg/Tg) is given as “increased”.
